From US20210015937A1 (CRESCENDO BIOLOGICS, published 2021) come the findings set out here.

Some results are limits rather than exact numbers.

In assay [1] the target is T1, human PD-1 expressed on cells (human, UniProt Q15116 25-288). Put plainly: cell-based or functional assay.
The target of assay [2] is T1, human PD-1 expressed on cells. Description: cell-based or functional assay. The source holds these as a separate data set.
The target in assay [3] is T2, human LAG-3 expressed on cells (human, UniProt P18627 23-525).
T2 sequence: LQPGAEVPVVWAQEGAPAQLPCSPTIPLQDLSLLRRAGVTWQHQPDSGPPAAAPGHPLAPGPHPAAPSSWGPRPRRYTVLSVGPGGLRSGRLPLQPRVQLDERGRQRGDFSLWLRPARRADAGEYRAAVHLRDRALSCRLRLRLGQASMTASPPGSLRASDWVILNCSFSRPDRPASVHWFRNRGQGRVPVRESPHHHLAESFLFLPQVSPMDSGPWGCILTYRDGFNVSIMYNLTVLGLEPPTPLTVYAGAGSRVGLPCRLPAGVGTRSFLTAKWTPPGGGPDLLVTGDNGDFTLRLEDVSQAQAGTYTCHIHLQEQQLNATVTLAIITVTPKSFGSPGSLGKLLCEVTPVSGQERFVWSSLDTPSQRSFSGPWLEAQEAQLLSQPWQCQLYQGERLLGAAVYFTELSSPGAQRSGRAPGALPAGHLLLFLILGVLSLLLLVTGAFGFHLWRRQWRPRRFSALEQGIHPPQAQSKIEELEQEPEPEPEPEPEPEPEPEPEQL
Description: cell-based or functional assay.

Assay [4] concerns the target T3, recombinant human LAG-3-Fc (human, UniProt P18627 23-450).
T3 construct: also called human LAG-3 (R&D Systems cat no. 2319-L3); LAG3 antigen
T3 sequence: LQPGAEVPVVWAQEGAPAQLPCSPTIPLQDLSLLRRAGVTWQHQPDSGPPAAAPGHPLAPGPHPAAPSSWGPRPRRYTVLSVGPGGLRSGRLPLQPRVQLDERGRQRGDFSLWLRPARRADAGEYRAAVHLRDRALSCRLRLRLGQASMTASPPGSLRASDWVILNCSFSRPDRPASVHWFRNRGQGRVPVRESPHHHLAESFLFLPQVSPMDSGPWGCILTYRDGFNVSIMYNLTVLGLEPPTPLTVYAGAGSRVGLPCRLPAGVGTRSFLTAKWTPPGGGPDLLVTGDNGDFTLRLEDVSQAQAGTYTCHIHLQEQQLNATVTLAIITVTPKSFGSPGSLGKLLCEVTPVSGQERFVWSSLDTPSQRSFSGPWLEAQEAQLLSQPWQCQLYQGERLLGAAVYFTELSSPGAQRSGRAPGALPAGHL
Description: BLI (Octet); human LAG-3-Fc captured on protein G biosensors, 1:1 fit. As to the method:
Binding kinetics for multi-valent and bispecific VH were also measured in real-time bio-layer interferometer based biosensor Octet (ForteBio). […] All the binding studies were performed in HBS-ET Octet kinetics buffer. Biosensors were washed in Octet kinetics buffer in between different steps. […] The contact time for each of the association steps was 150 seconds and the dissociation step was 400 seconds. […] To compare the constructs, kinetic association (kₐ) and dissociation (kd) rate constants were determined by processing and fitting the data to a 1:1 binding model using ForteBio Analysis software.

Assay [5] has as its target T4, recombinant human PD-1 Fc chimera (human, UniProt Q15116 25-167).
T4 construct: Bought Fc chimera; also called human PD-1 (R&D systems cat no. 1086-PD); PD1 antigen
Put plainly: HTRF binding; His-tagged construct with PD-1-Fc, anti-human-Fc cryptate and anti-His-D2. As to the method:
Binding to PD-1 was measured by HTRF (homogeneous time resolved fluorescence). Serially diluted HIS-tagged constructs were prepared in assay buffer containing PBS, 0.1% BSA and 0.4M Potassium Fluoride. […] Time-resolved fluorescent emission at 620 nm and 665 nm was measured following excitation at 337 nm on the BMG PHERAstar plate reader. The HTRF ratio were calculated ((665 nm emission/620 nm emission)*10000) and the data corrected for (non-specific binding) to give the specific binding signal. EC50 were calculated from the titration curve (table 8 below).
For orientation: Time-resolved FRET reads energy transfer from a long-lived donor to a nearby acceptor.

Assay [6] deals with T3, recombinant human LAG-3-Fc. Description: HTRF binding; His-tagged construct with LAG-3-Fc, anti-human-Fc cryptate and anti-His-D2.
In assay [7] the target is T3, recombinant human LAG-3-Fc. Description: competition ELISA; LAG-3-Fc pre-incubated with VH, binding to coated LSECtin. The source says: (§1) The plate was blocked with 3% Marvel skimmed milk powder in PBS. […] Wash steps were done 3 times with PBS 0.05% Tween. Colour was developed using TMB and 0.5M sulphuric acid solution.
Assay [8] addresses T3, recombinant human LAG-3-Fc. Description: competition ELISA; LAG-3-Fc pre-incubated with VH, binding to coated Galectin-3.
Excerpt: as §1
On the technique in general: ELISA stands for enzyme-linked immunosorbent assay.

Assay [9] addresses T5, LAG-3 and PD-1 on activated human T cells (human, UniProt P18627 23-525; Q15116 25-288).
T5 construct: also called huCD4+ T cells; huCD8+ T cells
Description: flow cytometry (Intellicyte) on anti-CD3/anti-CD28 stimulated human CD4+ T cells; His-tagged VH detected with anti-HIS biotin and streptavidin AlexaFluor488. The procedure:
(§2) FIG. 2. CD4+ T cells were stimulated with anti-CD3 and anti-CD28. Cells were stained with HIS tagged VH plus anti-HIS tag labelled with biotin and streptavidin AlexaFluor488. Cells were analysed using Intellicyte® cytometer.
(§3) Binding onto human activated T cells was measured by cytometry. PBMC or magnetically isolated T cells were isolated from leukocytes cones and cells were incubated in 96 well plates coated with anti-CD3 (OKT3) at 5 μg/ml. Anti-CD28 (CD28.2) was added at 1 μg/ml in RPMI media and foetal bovine serum. After 72-96 hours, cells were harvested and stained using standard flow cytometry methods. […] Fluorescently labelled anti-CD4 and anti-CD8 were included in PBMC cultures and a live/dead dye. Stained cells were analysed using the IQue cytometer (Intellicyte). EC50 were calculated from the titration curve of median fluorescence of Humabody, gating on CD4+ or CD8+ cells if using mixed cells.
For orientation: In flow cytometry, cells or beads pass a laser one at a time.

Assay [10] concerns the target T1, human PD-1 expressed on cells. Put plainly: FMAT inhibition of human Fc tagged PD-L1 binding to CHO human PD-1 cells. As to the method: All reagents and serially diluted VH were prepared in FMAT assay buffer. […] Plates were incubated for 2 hours at room temperature then fluorescence measured in the FL2 (502 nm-537 nm) and FL5 (677-800 nm) channels on the Mirrorball plate reader (TTP) following excitation at 488 nm and 640 nm. Data was expressed as a % of the total binding control (i.e. % control) after subtraction of the background signal determined from the non-specific binding control wells.

Assay [11] shares this target. Description: flow cytometry (Intellicyte) on anti-CD3/anti-CD28 stimulated human CD4+ T cells; His-tagged VH detected with anti-HIS biotin and streptavidin AlexaFluor488. The procedure:
as §2, §3

T1 sequence (Q15116 25-288 limits assumed): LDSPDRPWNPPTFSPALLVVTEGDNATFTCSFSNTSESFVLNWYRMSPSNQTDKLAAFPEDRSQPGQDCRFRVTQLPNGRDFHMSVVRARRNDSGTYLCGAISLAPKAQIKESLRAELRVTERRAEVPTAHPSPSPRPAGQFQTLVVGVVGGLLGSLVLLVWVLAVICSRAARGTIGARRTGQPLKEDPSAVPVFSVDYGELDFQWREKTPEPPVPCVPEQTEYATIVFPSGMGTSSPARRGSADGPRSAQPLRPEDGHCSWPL
T4 sequence (Q15116 25-167 limits assumed, change not shown): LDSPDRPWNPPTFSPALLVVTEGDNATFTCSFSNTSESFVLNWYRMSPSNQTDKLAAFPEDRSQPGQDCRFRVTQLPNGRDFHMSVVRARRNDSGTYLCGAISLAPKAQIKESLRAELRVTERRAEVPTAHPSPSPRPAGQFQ
T5 sequence (Q15116 25-288 limits assumed, one chain of several): as the sequence (Q15116 25-288 limits assumed) above

B1: VH1.1-6GS-VH1.1-6GS-VH2.63-His6 (bispecific antibody)
chain: EVQLVESGGGVVRPGGSLRLSCSASGFTFDDYGMSWVRQAPGKGLEWVSGIHWNGGNSGYADSVKGRFTISRDNAKNSLYLQMNSLRAEDTALYYCARIPREDCSSASCYTDAIDFWGPGTMVTVSSGGGGSGGGGSGGGGSGGGGSGGGGSGGGGSEVQLVESGGGVVRPGGSLRLSCSASGFTFDDYGMSWVRQAPGKGLEWVSGIHWNGGNSGYADSVKGRFTISRDNAKNSLYLQMNSLRAEDTALYYCARIPREDCSSASCYTDAIDFWGPGTMVTVSSGGGGSGGGGSGGGGSGGGGSGGGGSGGGGSEVQLVESGGGLVKPGGSLRLSCAASGFTFSDSSMTWMRQAPGKGLEWVSYISSGGGVKFYTDSVKGRFTISRDNAKNSLYLQMNSLRADDTAVYYCAREAPLRLGESPHDAFDISGQGTMVTVSSAAAHHHHHH
notes: Single-chain fusion of two anti-LAG-3 VH 1.1 and one anti-PD-1 VH 2.63; The entry includes AAA-His6; also called 1.1-6GS-1.1-6GS-2.63
For orientation: Kd means the constant that tells how readily two partners part at equilibrium. One may read the koff as the first-order rate constant of dissociation. As a reminder, the kon is the second-order rate constant of association. As a reminder, the EC50 is the concentration that produces a half-maximal response. B1: the “potency in the PD-1:PD-L1 NFAT-luciferase reporter assay, fold lower than monoclonal antibodies” value in assay [1] was more than 30 fold. Further, the “EC50 (M), NFAT-Luciferase Reporter Gene assay (PD-1:PD-L1)” value (“EC50 (M) … (PD-1:PD-L1)” below) in [2] was 4.2e-08 M. Also, the “EC50 (M), NFAT-Luciferase Reporter Gene assay (LAG-3:MHCII)” value in assay [3] is 3.3e-09 M. Further, in assay [4], the Kd stood at 0.399 nM, the koff came to 0.000305 s⁻¹ and the association rate constant (kon) is 764000 M⁻¹ s⁻¹. The EC50 in assay [5] was found to be 0.59 nM. Further, the EC50 in [6] was 0.51 nM.

B2: VH1.1-6GS-VH1.1-9GS-VH2.63-His6 (bispecific antibody)
chain: EVQLVESGGGVVRPGGSLRLSCSASGFTFDDYGMSWVRQAPGKGLEWVSGIHWNGGNSGYADSVKGRFTISRDNAKNSLYLQMNSLRAEDTALYYCARIPREDCSSASCYTDAIDFWGPGTMVTVSSGGGGSGGGGSGGGGSGGGGSGGGGSGGGGSEVQLVESGGGVVRPGGSLRLSCSASGFTFDDYGMSWVRQAPGKGLEWVSGIHWNGGNSGYADSVKGRFTISRDNAKNSLYLQMNSLRAEDTALYYCARIPREDCSSASCYTDAIDFWGPGTMVTVSSGGGGSGGGGSGGGGSGGGGSGGGGSGGGGSGGGGSGGGGSGGGGSEVQLVESGGGLVKPGGSLRLSCAASGFTFSDSSMTWMRQAPGKGLEWVSYISSGGGVKFYTDSVKGRFTISRDNAKNSLYLQMNSLRADDTAVYYCAREAPLRLGESPHDAFDISGQGTMVTVSSAAAHHHHHH
notes: Single-chain fusion of two anti-LAG-3 VH 1.1 and one anti-PD-1 VH 2.63; The entry includes AAA-His6; also called 1.1-6GS-1.1-9GS-2.63
The IC50 is the point on the concentration scale where inhibition reaches its midpoint. A word on the EC50 (read off the curve): it is the concentration giving half of the maximal effect. Lower therefore signals a more potent agent. As to B2, in assay [1], the “potency in the PD-1:PD-L1 NFAT-luciferase reporter assay, fold lower than monoclonal antibodies” value is more than 30 fold. Further, the “EC50 (M) … (PD-1:PD-L1)” value in [2] stood at 3e-08 M. Further, the “EC50 (M), NFAT-Luciferase Reporter Gene assay (LAG-3:MHCII)” value in assay [3] was 3.2e-09 M. In [4], the Kd was determined as 0.397 nM, the koff is 0.000303 s⁻¹ and the kon is 762000 M⁻¹ s⁻¹. For the same molecule, the IC50 in assay [7] came to 54 nM. In addition, the half-inhibitory concentration (IC50) in [8] was found to be 38 nM. For the same molecule, the EC50 in [5] turned out to be 0.6 nM. In addition, the EC50 in assay [6] worked out at 0.78 nM. In addition, the concentration for a half-maximal effect (EC50 (read off the curve)) in [9] is approximately 2 nM.

B3: VH 2.63 (VHH)
VHH: EVQLVESGGGLVKPGGSLRLSCAASGFTFSDSSMTWMRQAPGKGLEWVSYISSGGGVKFYTDSVKGRFTISRDNAKNSLYLQMNSLRADDTAVYYCAREAPLRLGESPHDAFDISGQGTMVTVSS
notes: Human VH single domain antibody against PD-1
Turning to B3, the “EC50 (M) … (PD-1:PD-L1)” value in assay [2] was determined as 1.2e-08 M. This molecule came in with a half-inhibitory concentration (IC50) in [10] of 4.5 nM. Also, the “EC50 (read off the curve)” value in assay [11] is approximately 2 nM.
